Assay [1] concerns the target T1, Recombinant DR3-Fc (R&D Systems, cat. #943-D3) (UniProt Q93038 25-199, limits assumed).
T1 construct: dimeric MW~92 kDa; also called DR3 receptor; Fc-DR3; not shown: Fc part of the bought fusion
T1 sequence (looked up): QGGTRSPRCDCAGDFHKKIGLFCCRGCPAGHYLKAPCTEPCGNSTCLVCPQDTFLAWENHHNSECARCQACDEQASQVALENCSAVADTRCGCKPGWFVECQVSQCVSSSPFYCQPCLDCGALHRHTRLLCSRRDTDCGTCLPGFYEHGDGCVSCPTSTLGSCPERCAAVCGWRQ
Put plainly: ELISA. On the technique in general: An ELISA detects its analyte on a solid surface through an enzyme-linked reagent.

The target in assay [2] is T1, Recombinant DR3-Fc (R&D Systems, cat. …). Put plainly: ELISA, DR3-Fc immobilized. Here is the method: (§1) All ELISA-based measurements were collected in triplicate, and error values report the standard error between measurements. Recombinant DR3-Fc (R&D Systems, cat. #943-D3), dimeric MW˜92 kDa, was non-specifically immobilized onto plates (Nunc maxisorp, cat. #436110) in 100 μL DR3-Fc, diluted to 10 μg/mL onto a 96-well White Maxisorp plate (Nunc, cat #436110) (O/N, 4° C.). Plates were block for 1 hour at room temperature with 250 μl/well of casein buffer and blocking buffer was removed. 50 μL of TL1A variants were diluted in StartingBlock PBS (Thermo Fisher Scientific), at 25 μg/mL, diluting 3× over each well, according to the plate map description for 20160623) per well on a 96-well White Maxisorp plate (Nunc, cat #: 436110) (overnight at 4° C.).
(§2) Plates were washed three times with TBST. 100 μl/well polyclonal rabbit anti-human TL1A-biotin antibody (diluted 1:1000 in Starting Block PBS) was added and plates were incubated for 1 hour at room temperature with shaking at 150 rpm. TL1A-biotin antibody was removed and 100 μl/well streptavidin-HRP conjugate (diluted 1:10,000 in Starting Block PBS) was added to plates. […] 100 μl/well POD Chemiluminescence substrate (Roche, cat #: 11582950001) was added immediately prior to reading plate luminescence using a Molecular Devices M5 plate reader with a delay setting of 100 ms.

In assay [3] the target is T2, DcR3 (UniProt O95407 30-300, limits assumed).
T2 construct: the construct is not described; also called decoy receptor DcR3; TNFRSF6B
T2 sequence (looked up): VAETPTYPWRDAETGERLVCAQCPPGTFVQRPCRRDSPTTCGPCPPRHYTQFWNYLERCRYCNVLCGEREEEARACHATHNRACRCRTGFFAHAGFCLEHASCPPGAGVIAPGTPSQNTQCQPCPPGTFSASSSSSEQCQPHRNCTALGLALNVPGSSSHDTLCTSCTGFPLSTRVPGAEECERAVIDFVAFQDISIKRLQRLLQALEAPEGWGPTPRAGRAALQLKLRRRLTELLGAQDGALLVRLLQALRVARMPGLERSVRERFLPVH
The assay is described as follows: ELISA, DcR3.

Assay [4] deals with T2, DcR3. The assay is described as follows: ELISA, DcR3. This is another data set of the same source.
The target in assay [5] is T1, Recombinant DR3-Fc (R&D Systems, cat. …). Put plainly: ELISA, DR3-Fc immobilized. Put shortly:
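DR3-Fc (10 μg/mL) was coated overnight at 4 °C, blocked with casein, then incubated overnight at 4 °C with TL1A variants from 25 μg/mL in 3-fold dilutions. Bound TL1A was detected with biotinylated rabbit anti-human TL1A and streptavidin-HRP, read by chemiluminescence; triplicates, errors as standard error.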
This is another data set of the same source.

Assay [6] shares this target. The assay is described as follows: ELISA, DR3-Fc immobilized. The protocol: as §1
Plates were washed three times with TBST. 100 μl/well polyclonal rabbit anti-human TL1A-biotin antibody (diluted 1:1000 in Starting Block PBS) was added and plates were incubated for 1 hour at room temperature with shaking at 150 rpm. TL1A-biotin antibody was removed and 100 μl/well streptavidin-HRP conjugate (diluted 1:10,000 in Starting Block PBS) was added to plates. Plates were incubated for 1 hour at room temperature with shaking at 150 rpm. Plates were washed three times with TBST. 100 μl/well POD Chemiluminescence substrate (Roche, cat #: 11582950001) was added immediately prior to reading plate luminescence using a Molecular Devices M5 plate reader with a delay setting of 100 ms.
These combination mutants were tested for binding to DR3 and DcR3 (FIGS. 5E and 5F, respectively).
This is another data set of the same source.

Assay [7] has the same target. The assay is described as follows: ELISA, TL1A construct immobilized, DR3 titrated.
Assay [8] shares this target. Put plainly: ELISA (FIG. 4C). The protocol:
as §1, §2

The results in this text go back to patent US20220056104A1 (Janssen / Centocor, published 2022).

Like-named read-outs stand apart in the source and are kept apart here.

B1: TL1W19 (His-TEV-TL1A-TL1A-TL1A) (ligand)
chain: HHHHHHENLYFQGAPLRADGDKPRAHLTVVRQTPTQHFKNQFPALHWEHELGLAFTKNRMNYTNKFLLIPESGDYFIYSQVTFRGMTSECSEIRQAGRPNKPDSITVVITKVTDSYPEPTQLLMGTKSVCEVGSNWFQPIYLGAMFSLQEGDKLMVNVSDISLVDYTKEDKTFFGAFLLAPLRADGDKPRAHLTVVRQTPTQHFKNQFPALHWEHELGLAFTKNRMNYTNKFLLIPESGDYFIYSQVTFRGMTSECSEIRQAGRPNKPDSITVVITKVTDSYPEPTQLLMGTKSVCEVGSNWFQPIYLGAMFSLQEGDKLMVNVSDISLVDYTKEDKTFFGAFLLAPLRADGDKPRAHLTVVRQTPTQHFKNQFPALHWEHELGLAFTKNRMNYTNKFLLIPESGDYFIYSQVTFRGMTSECSEIRQAGRPNKPDSITVVITKVTDSYPEPTQLLMGTKSVCEVGSNWFQPIYLGAMFSLQEGDKLMVNVSDISLVDYTKEDKTFFGAFLL
notes: Single-chain trimer, three TL1A copies in one chain; also called His-scTL1A; His-scTL1A (TL1W19)
A word on the EC50: it is the midpoint of the concentration-response curve. Take B1: the “fold weaker EC50 than other molecules” value in assay [1] is approximately 3 fold. The EC50 in assay [2] stood at 27.3 nM.

B2: TL1W2 (His-TEV-hTL1A 72-251) (ligand)
chain: HHHHHHENLYFQGLKGQEFAPSHQQVYAPLRADGDKPRAHLTVVRQTPTQHFKNQFPALHWEHELGLAFTKNRMNYTNKFLLIPESGDYFIYSQVTFRGMTSECSEIRQAGRPNKPDSITVVITKVTDSYPEPTQLLMGTKSVCEVGSNWFQPIYLGAMFSLQEGDKLMVNVSDISLVDYTKEDKTFFGAFLL
notes: Non-covalent trimer; entry holds the His-TEV tag; also called His-TL1A; His-TL1A (TL1W2)
Regarding B2, the EC50 in the assay with DcR3 [3] was 4.6 nM; in the assay with DcR3 [4], 4.6 nM; in assay [2], 6.8 nM; in assay [5], 26.2 nM; in assay [6], 26.2 nM; in assay [7], 2.5 nM. Further, the “Rel EC50” value was 1 ratio (head: nM) with DcR3 [3], 1 ratio with DcR3 [4], 1 ratio (head: nM) in assay [5] and 1 ratio in assay [6].

B3: TL1W35 (C202S) (ligand)
chain: HHHHHHENLYFQGLKGQEFAPSHQQVYAPLRADGDKPRAHLTVVRQTPTQHFKNQFPALHWEHELGLAFTKNRMNYTNKFLLIPESGDYFIYSQVTFRGMTSECSEIRQAGRPNKPDSITVVITKVTDSYPEPTQLLMGTKSVSEVGSNWFQPIYLGAMFSLQEGDKLMVNVSDISLVDYTKEDKTFFGAFLL
Regarding B3, the binding result in assay [8] is “no binding”.
